The chains are these.
B1: glmS ribozyme (parent)
chain: AUAAAAGCGCCAGAACUACAGAAAUGUAGUUGACGAGGAGGAGGUUUAUCGAAUUUUCGGCGGAUGCCUCCAAA

± gives the standard error. Fewer inactive variants are shown than the library holds.

Common to all, as to conditions: with glucosamine-6-phosphate
Variants of B1 are the subject of data set [1]. As to the kind of experiment: self-cleavage kobs at 640 uM GlcN6P; higher = faster cleavage; RNA array. In outline:
(§1)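 Barcoded glmS ribozyme variants on sequenced MiSeq chips were transcribed in situ by E. coli RNA polymerase and tracked through a hybridised Cy3 probe at 37 °C. Glucosamine-6-phosphate (40 μM to 10 mM) in HEPES/KCl/Mg(OAc)2 buffer was flowed in, and tiles were imaged over ~14 h. Signals were normalised to baseline and to non-cleaving reference variants; per-tile medians were fit to one- or two-exponential decays to give kobs. kcat and KM came from weighted Michaelis–Menten fits across concentrations.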

In data set [2] the parent is B1. The data set is described as follows: self-cleavage kobs at 2500 uM GlcN6P; higher = faster cleavage; RNA array. In outline: as §1
In data set [3] the parent is B1. The data set is described as follows: self-cleavage kobs at 10000 uM GlcN6P; higher = faster cleavage; RNA array. In outline: as §1

AUAAAAGCGCCAGAACUACAGAAAUGUAGUUGACGAGGAGGAGGUUUAGCGAAUUUUCGGCGGAUGCGGCCAAA [U49G C68G U69G]: the “self-cleavage kobs at 640 uM GlcN6P” value in the data set with glucosamine-6-phosphate [1] turned out to be 5.67e-05 ± 2.1e-05 s⁻¹.

As for AUAAAAGCGCCAGAACUACAGAAAUGUAGAUGACGAGGAGUAGGUUUUUCGAAUUUUCGGCGGAUGCCUCCAAA [U30A G41U A48U], in the data set with glucosamine-6-phosphate [1], the “self-cleavage kobs at 640 uM GlcN6P” value is < 1e-05 s⁻¹. Besides, the “self-cleavage kobs at 2500 uM GlcN6P” value with glucosamine-6-phosphate [2] is < 1e-05 s⁻¹.

As for AUAAAUGCGCCAGAACUACAGAAAUGUAGUUGACAAGGAGGAGGUUUAUCGAAUUUUCGGCGGAUGCCUUCAAA [A6U G35A C70U], the “self-cleavage kobs at 640 uM GlcN6P” value with glucosamine-6-phosphate [1] was < 1e-05 s⁻¹.

As for AUAAAAGCGCCAGAACUACAGAAAUGUAUCUGACGAGGAGGAGGUUUAUCGUAUUUUCGGCGGAUGCCUCCAAA [G29U U30C A52U], the “self-cleavage kobs at 640 uM GlcN6P” value with glucosamine-6-phosphate [1] is < 1e-05 s⁻¹. The “self-cleavage kobs at 2500 uM GlcN6P” value with glucosamine-6-phosphate [2] is < 1e-05 s⁻¹.

Take AUAAAAGCGCCUGAACUACAGAAAUGUAGUGGACGAGGAGGAGGGUUAUCGAUUUUUCGGCGGAUGCCUCCAAA [A12U U31G U45G A53U]: the “self-cleavage kobs at 640 uM GlcN6P” value with glucosamine-6-phosphate [1] was 0.00024 ± 6.1e-05 s⁻¹. Further, in the data set with glucosamine-6-phosphate [2], the “self-cleavage kobs at 2500 uM GlcN6P” value was 0.00101 ± 0.00033 s⁻¹.

As for AUAAAAGCGCCAGCACUACAGAAAUGUAGUUGACGAGGAGGAGGUUUAUAGAAUUUUCGGAGGAUGCCUCCAAA [A14C C50A C61A], the “self-cleavage kobs at 640 uM GlcN6P” value in the data set with glucosamine-6-phosphate [1] was 4.16e-05 ± 1.7e-05 s⁻¹.

In the case of AUAAAAGCGCCAGAACUACAGAAAUGUAGUUGACGAGGAGGAGGUUUAUCGGAUUGUCGGCGGAUGACCCCAAA [A52G U56G C67A U69C], in the data set with glucosamine-6-phosphate [1], the “self-cleavage kobs at 640 uM GlcN6P” value amounted to 9.46e-05 ± 1.8e-05 s⁻¹. For the same variant, the “self-cleavage kobs at 2500 uM GlcN6P” value in the data set with glucosamine-6-phosphate [2] turned out to be 0.000192 ± 5.3e-05 s⁻¹. Further, the “self-cleavage kobs at 10000 uM GlcN6P” value with glucosamine-6-phosphate [3] is 0.000295 ± 8.2e-05 s⁻¹.

In the case of AUAAAAGCGCAAGAACUACAGAAAUGUAGUUGACGAGGAGGAGGUUUAUCUAGUUUUCGGCGGCUGCCACCAAA [C11A G51U A53G A64C U69A], the “self-cleavage kobs at 640 uM GlcN6P” value in the data set with glucosamine-6-phosphate [1] was 8.76e-05 ± 3.9e-05 s⁻¹. Moreover, the “self-cleavage kobs at 10000 uM GlcN6P” value with glucosamine-6-phosphate [3] was 5.47e-05 ± 1.5e-05 s⁻¹.

Take AUAAAAGCGGCAGAACUACAGAAAUGUAGUUGACGAGGAGGAGGUUUAUCGAAUUUUCGGCGGAUGCGUUCAAA [C10G C68G C70U]: the “self-cleavage kobs at 640 uM GlcN6P” value with glucosamine-6-phosphate [1] worked out at 9.88e-05 ± 3.1e-05 s⁻¹.

Turning to AUAAAAGUGCCAGAACUACAGAAAUGUAGAUGACGAGGAGGAGGUUUAUCGAAUUUUCGGCGGAUGCCUCUAAA [C8U U30A C71U], in the data set with glucosamine-6-phosphate [1], the “self-cleavage kobs at 640 uM GlcN6P” value is < 1e-05 s⁻¹.

Regarding AUAAAACCUCCAGAACUACAGAAAUGUAGUUGACGAGGAGGAGGUUUAUCGAAUUUUCGGCCGAUGCCUCCAAA [G7C G9U G62C], the “self-cleavage kobs at 640 uM GlcN6P” value in the data set with glucosamine-6-phosphate [1] is < 1e-05 s⁻¹.

For AUAAAAGCGCCAGAACUACAGAAAUGUAGUUGACCAGUAGGAGGUUUAUCGAAUUUUCGGCGGAUGCCUCCAAA [G35C G38U], in the data set with glucosamine-6-phosphate [1], the “self-cleavage kobs at 640 uM GlcN6P” value is < 1e-05 s⁻¹. Besides, the “self-cleavage kobs at 2500 uM GlcN6P” value with glucosamine-6-phosphate [2] was < 1e-05 s⁻¹.

Regarding AUAAAAGUGCCAGAACUACAGAAAUGUAGUUGGCGAGAAGGAGGUUUAUCGAAUUUUCAGCGGAUGCCUGCAAA [C8U A33G G38A G59A C70G], the “self-cleavage kobs at 640 uM GlcN6P” value with glucosamine-6-phosphate [1] turned out to be 5.19e-05 ± 1.9e-05 s⁻¹.

As for AUAAAAGCGCCAGAACUACAGAAAUGUAGUUGACGAGGAGGAGGAUUAUCGAAUUUUCGGCGCAUGCCUCCAAA [U45A G63C], the “self-cleavage kobs at 640 uM GlcN6P” value with glucosamine-6-phosphate [1] was < 1e-05 s⁻¹. The “self-cleavage kobs at 2500 uM GlcN6P” value with glucosamine-6-phosphate [2] is < 1e-05 s⁻¹.

For the variant AUAAAAGCGACAGAACUACAGAAAUGUAGUUGACGUGGAGGAGGUUUAUCGAAUUUUCGGCGGAUGCAUCCAAA [C10A A36U C68A], the “self-cleavage kobs at 640 uM GlcN6P” value with glucosamine-6-phosphate [1] was 0.000222 ± 9e-05 s⁻¹.

As to AUAAAAGCGCCAGCACUACAGAAAUGUAGUUGACGAGGAGGAGGUUUAUCGAAUUAUCGGCGGAUGCCUCUAAA [A14C U56A C71U], the “self-cleavage kobs at 640 uM GlcN6P” value with glucosamine-6-phosphate [1] was determined as 0.000174 ± 4.2e-05 s⁻¹. Also, in the data set with glucosamine-6-phosphate [2], the “self-cleavage kobs at 2500 uM GlcN6P” value turned out to be 0.000691 ± 0.00019 s⁻¹.

For AUAAAAGCGUCAGAAGUACAGAAAUGUAGUGGCCGAGGAGGAGGUUUAUCGAAUUUUCGGCGGAUGCCUGCAAA [C10U C16G U31G A33C C70G], the “self-cleavage kobs at 640 uM GlcN6P” value with glucosamine-6-phosphate [1] was < 1e-05 s⁻¹.

Consider AUAAAAGCGCCAUAACUACAGAAAUGUAGUUGACGAGGAGGAGGUUUAUCGAAUUUUAGGCGGAUGCCACCAAA [G13U C58A U69A], for which the “self-cleavage kobs at 640 uM GlcN6P” value with glucosamine-6-phosphate [1] was 6.33e-05 ± 2e-05 s⁻¹.

Consider AUAAAAGCGCCAGAACUACAGAAAUGUAGUUGACGAGGAGGAGUUUUAUCGAAUUUUCGGCAGAUGCCUUCAAA [G44U G62A C70U], for which, in the data set with glucosamine-6-phosphate [1], the “self-cleavage kobs at 640 uM GlcN6P” value was < 1e-05 s⁻¹.

With AUAAAAGCGCCAGAACUACAGAAAUGUAGUUGAUGUGGAGCAGGUUUAUCGAGUUUUCGGCGGAUGCCUCCAAA [C34U A36U G41C A53G], in the data set with glucosamine-6-phosphate [1], the “self-cleavage kobs at 640 uM GlcN6P” value was < 1e-05 s⁻¹.

For AUAAAUGCGCCAUAACUACAGAAAUGUAUUUGACGAGGAGGAGGUUUAUCGAAUUUUCGGCGGAUGCCUGCAAA [A6U G13U G29U C70G], in the data set with glucosamine-6-phosphate [1], the “self-cleavage kobs at 640 uM GlcN6P” value came out at 4.98e-05 ± 2.3e-05 s⁻¹.

With AUAAAAGCGCCACAACUACAGAAAUGUAGUUGACGAGGAGGAGGUUUAUCGAAUUAUCGGCGGAAGCCUCCAAA [G13C U56A U65A], in the data set with glucosamine-6-phosphate [1], the “self-cleavage kobs at 640 uM GlcN6P” value is < 1e-05 s⁻¹. The “self-cleavage kobs at 2500 uM GlcN6P” value with glucosamine-6-phosphate [2] was < 1e-05 s⁻¹.

As to AUAAAAGCGCCAGAACUACAGAAAUGUAGUUGACGAGGAUGAUGUUUCUCGAAUUAUCGGCGGAAGCCUCCAAA [G40U G43U A48C U56A U65A], the “self-cleavage kobs at 640 uM GlcN6P” value with glucosamine-6-phosphate [1] is < 1e-05 s⁻¹.

Regarding AUAAAAGGGCCUGAACUACAGAAAUGUAGUUGACGAGGAGGAAGUUUAUCGAAUUUUCGGCGGAUGACUCCAAA [C8G A12U G43A C67A], the “self-cleavage kobs at 640 uM GlcN6P” value in the data set with glucosamine-6-phosphate [1] is < 1e-05 s⁻¹. The “self-cleavage kobs at 2500 uM GlcN6P” value with glucosamine-6-phosphate [2] is < 1e-05 s⁻¹.

For the variant AUAAAAGCGCUAGAACUACAGAAAUGUAGUUGACGAGGAGGAGGUUUAUCGAAGUUUCAGCGGAUGCCUCCAAA [C11U U54G G59A], the “self-cleavage kobs at 640 uM GlcN6P” value with glucosamine-6-phosphate [1] is 0.00194 ± 0.00054 s⁻¹. In addition, the “self-cleavage kobs at 2500 uM GlcN6P” value in the data set with glucosamine-6-phosphate [2] is 0.00627 ± 0.002 s⁻¹.
